Data: article PMC7153837

Molecular target: B10v5xhu225L, c-METxEGFR bispecific SEED antibody reconstituted by Npu DnaE protein trans-splicing
Experiment: BLI

“EGFR (EGF receptor), recombinant antigen (from UniProt P00533 25-1210)” showed a Kd of 220 nM.
